Data from the supplement of paper PMC10724198.
± gives the standard deviation of the averaged measurements.

What was measured:
Saccharomyces cerevisiae [1] = assay: protein stability index of tFT-peptide fusion (C-terminal peptide) (PSI (0-1 scale)); higher = more stable (slower turnover); conditions: genetic background: wild type; temperature: 30 C
Saccharomyces cerevisiae [2] = assay: as above
Description: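 MPS profiling in S. cerevisiae of the tFT-X12 degron library: putative degron peptides plus stable controls, 12 aa, fused to the C-terminus of a sfGFP-mCherry timer. Cells are FACS-sorted into 8 mCherry/sfGFP bins and deep-sequenced. PSI runs from 0 (unstable) to 1 (stable). Backgrounds are wild type, das1Δ and doa10Δ at 30 °C, and wild type, das1Δ, cdc34-1 and cdc53-1 at 37 °C; 2-3 technical replicates each.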

[3] = genetic background: cdc34-1, temperature: 37 C
[4] = genetic background: cdc53-1, temperature: 37 C
[5] = genetic background: das1 deletion, temperature: 30 C
[6] = genetic background: das1 deletion, temperature: 37 C
[7] = genetic background: doa10 deletion, temperature: 30 C
[8] = genetic background: wild type, temperature: 30 C
[9] = genetic background: wild type, temperature: 37 C
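Further: PSI is a weighted mean of sequencing reads over stability bins, variants kept only with over 10 reads, mCherry proximal and sfGFP distal, peptide attached via GGGS linker.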

Sequence	protein stability index (Saccharomyces cerevisiae [1])	protein stability index (Saccharomyces cerevisiae [2]; [3])	protein stability index (Saccharomyces cerevisiae [2]; [4])	protein stability index (Saccharomyces cerevisiae [2]; [5])	protein stability index (Saccharomyces cerevisiae [2]; [6])	protein stability index (Saccharomyces cerevisiae [2]; [7])	protein stability index (Saccharomyces cerevisiae [2]; [8])	protein stability index (Saccharomyces cerevisiae [2]; [9])
GSLFANYNLKLF	0.163 ± 0.025	0.62289 ± 0.00034	0.724 ± 0.017	0.648 ± 0.06	0.771 ± 0.033	0.108 ± 0.017	0.106 ± 0.028	0.211 ± 0.013
RILKLPGHVNDV	0.7167 ± 0.005	0.6842 ± 0.0067	0.711 ± 0.031	0.654 ± 0.043	0.697 ± 0.026	0.652 ± 0.065	0.65 ± 0.027	0.69 ± 0.019
FRSMFLFLNLLF	0.412 ± 0.014	0.458 ± 0.05	0.3523 ± 0.00055	0.391 ± 0.048	0.73 ± 0.02	0.559 ± 0.015	0.371 ± 0.019	0.574 ± 0.025
RRMGLRLFLLWM	0.4517 ± 0.0011	0.649 ± 0.045	0.657 ± 0.0097	0.534 ± 0.026	0.67 ± 0.015	0.354 ± 0.021	0.348 ± 0.032	0.539 ± 0.015
MALAVRVVRCGA	0.353 ± 0.024	0.406 ± 0.0042	0.422 ± 0.018	0.302 ± 0.025	0.4769 ± 0.0017	0.227 ± 0.043	0.233 ± 0.038	0.379 ± 0.033
PVALYPVQAYLT	0.2307 ± 0.0013	0.5565 ± 0.0049	0.71 ± 0.025	0.616 ± 0.012	0.715 ± 0.022	0.119 ± 0.01	0.146 ± 0.017	0.265 ± 0.094
LGSCSLIYRKFS	0.204 ± 0.0059	0.597 ± 0.026	0.728 ± 0.017	0.639 ± 0.02	0.703 ± 0.029	0.0934 ± 0.0075	0.0958 ± 0.017	0.172 ± 0.021
MTLYSFSSALLA	0.3535 ± 0.0027	0.413 ± 0.045	0.464 ± 0.013	0.316 ± 0.014	0.461 ± 0.002	0.27 ± 0.038	0.276 ± 0.016	0.423 ± 0.0074
FSGRYFLLFRFL	0.104 ± 0.019	0.238 ± 0.035	0.28 ± 0.0032	0.341 ± 0.0075	0.389 ± 0.0091	0.083 ± 0.015	0.0605 ± 0.014	0.144 ± 0.038
RGKVVRGLLFCA	0.3 ± 0.12	0.619 ± 0.058	0.7188 ± 0.0062	0.624 ± 0.031	0.7327 ± 0.0057	0.137 ± 0.012	0.151 ± 0.0035	0.318 ± 0.077
FLDYLLFIFFFF	0.415 ± 0.008	0.431 ± 0.054	0.519 ± 0.041	0.419 ± 0.032	0.522 ± 0.0072	0.464 ± 0.0094	0.392 ± 0.037	0.473 ± 0.039
FYIRFYVYSWLF	0.3604 ± 0.0023	0.376 ± 0.0093	0.441 ± 0.011	0.304 ± 0.051	0.492 ± 0.0077	0.278 ± 0.0083	0.303 ± 0.01	0.46 ± 0.0047
PLATSLIGLFVV	0.433 ± 0.039	0.663 ± 0.098	0.716 ± 0.013	0.522 ± 0.028	0.661 ± 0.021	0.273 ± 0.018	0.298 ± 0.032	0.4673 ± 0.0014
NGLVCVFILSWY	0.375 ± 0.031	0.202 ± 0.022	0.261 ± 0.1	0.234 ± 0.038	0.437 ± 0.011	0.21 ± 0.012	0.238 ± 0.033	0.375 ± 0.0047
CHPIPLARLAPT	0.72 ± 0.013	0.671 ± 0.032	0.745 ± 0.032	0.67 ± 0.046	0.7433 ± 0.0058	0.652 ± 0.026	0.666 ± 0.014	0.697 ± 0.011
IRHALHFRVVAV	0.48 ± 0.0076	0.505 ± 0.035	0.545 ± 0.016	0.432 ± 0.015	0.568 ± 0.0082	0.3943 ± 0.0036	0.419 ± 0.013	0.5286 ± 0.0022

Sequence	protein stability index (Saccharomyces cerevisiae [1])	protein stability index (Saccharomyces cerevisiae [2]; [3])	protein stability index (Saccharomyces cerevisiae [2]; [4])	protein stability index (Saccharomyces cerevisiae [2]; [5])	protein stability index (Saccharomyces cerevisiae [2]; [6])	protein stability index (Saccharomyces cerevisiae [2]; [7])	protein stability index (Saccharomyces cerevisiae [2]; [8])	protein stability index (Saccharomyces cerevisiae [2]; [9])
ALFISLAIWNWS	0.232 ± 0.012	0.0849 ± 0.024	0.154 ± 0.018	0.165 ± 0.027	0.318 ± 0.01	0.142 ± 0.011	0.139 ± 0.0085	0.2526 ± 0.00054
NYFRPWLIFHKC	0.38 ± 0.059	0.684 ± 0.021	0.749 ± 0.012	0.632 ± 0.05	0.742 ± 0.014	0.2644 ± 0.00051	0.309 ± 0.023	0.547 ± 0.0037
YLFFSCIFTFSC	0.316 ± 0.025	0.121 ± 0.025	0.198 ± 0.027	0.179 ± 0.024	0.331 ± 0.014	0.189 ± 0.011	0.211 ± 0.091	0.273 ± 0.018
GVSLQLHVAVLI	0.44 ± 0.047	0.72 ± 0.39		0.483 ± 0.053	0.542 ± 0.056	0.275 ± 0.036	0.278 ± 0.0093	0.4284 ± 0.0018
FCFLLLSWAFWV	0.159 ± 0.048	0.155 ± 0.026	0.205 ± 0.0084	0.171 ± 0.03	0.27279 ± 7.6e-05	0.0977 ± 0.011	0.103 ± 0.026	0.1757 ± 0.00047
CHFLLHYVFLLS	0.417 ± 0.017	0.3792 ± 0.0019	0.456 ± 0.0076	0.306 ± 0.037	0.523 ± 0.0055	0.241 ± 0.0065	0.267 ± 0.024	0.462 ± 0.015
ESCIFLMWLTVL	0.136 ± 0.0054	0.177 ± 0.013	0.273 ± 0.024	0.222 ± 0.032	0.379 ± 0.0044	0.0814 ± 0.021	0.0868 ± 0.012	0.0936 ± 0.013
RTMLSNRIKSFI	0.415 ± 0.014	0.6235 ± 0.0026	0.701 ± 0.038	0.642 ± 0.014	0.723 ± 0.02	0.239 ± 0.0068	0.244 ± 0.021	0.519 ± 0.025
SVSQTSILDSRL	0.71 ± 0.0074	0.7109 ± 0.0043	0.756 ± 0.022	0.668 ± 0.012	0.74121 ± 0.00058	0.667 ± 0.018	0.675 ± 0.012	0.7313 ± 0.0043
SRPLYVMICTRV	0.386 ± 0.0086	0.4376 ± 0.00075	0.522 ± 0.035	0.327 ± 0.024	0.558 ± 0.018	0.246 ± 0.0034	0.287 ± 0.018	0.503 ± 0.022
VSLHVFVFLLAS	0.309 ± 0.043	0.255 ± 0.02	0.347 ± 0.0036	0.249 ± 0.025	0.4219 ± 0.0024	0.189 ± 0.012	0.239 ± 0.027	0.378 ± 0.0044
PVLIFTWVIVCH	0.162 ± 0.036	0.0357 ± 0.011	0.0674 ± 0.026	0.0676 ± 0.026	0.142 ± 0.013	0.0332 ± 0.0019	0.0533 ± 0.023	0.0899 ± 0.012
WLFFVVLPVKAF	0.231 ± 0.0071	0.0666 ± 0.0023	0.146 ± 0.02	0.178 ± 0.038	0.28 ± 0.016	0.104 ± 0.023	0.131 ± 0.026	0.154 ± 0.001
LLTGRFRILLVV	0.0704 ± 0.021	0.0537 ± 0.0092	0.0715 ± 0.0019	0.176 ± 0.019	0.276 ± 0.004	0.0579 ± 0.017	0.0444 ± 0.0073	0.0674 ± 0.026
RSAVECRVTNIR	0.546 ± 0.08	0.701 ± 0.031	0.7227 ± 0.00094	0.637 ± 0.018	0.724 ± 0.01	0.639 ± 0.015	0.658 ± 0.036	0.715 ± 0.024
